Test [1] addresses T1, CD3δε (Homo sapiens, UniProt P07766). The test can be described thus: BLI binding of M-TCEs (captured on AHC sensors) to CD3δε. More on the design: purchased ACRO (Beijing, China). The method, then: (§1) Bio-Layer Interferometry (BLI) technique was employed for the measurement of protein-protein interactions in this study. A Octet Red96 system and Streptavidin (SA) or AHC biosensors (ForteBio, Fremont) were utilized.
(§2) Measurement of bindings between CD3ε1-27 mutants-SP34 fusion, or M-TCE, and […] was conducted as described above but with AHC sensors to capture M-TCE, and […] was used as the analyte.
(§3) Binding of the 19 M-TCEs to both their antigens CEACAM5 and CD3δε was assessed with BLI using ForteBio Red96 as described above.
For orientation: Biolayer interferometry detects binding as a change in optical thickness at a sensor tip.
Target sequence in this assay (P07766 22-126 limits assumed): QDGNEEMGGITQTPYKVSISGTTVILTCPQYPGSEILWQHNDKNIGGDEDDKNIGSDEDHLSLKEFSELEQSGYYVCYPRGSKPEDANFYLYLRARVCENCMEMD
Target sequence in this assay (P04234 22-105 partner limits assumed): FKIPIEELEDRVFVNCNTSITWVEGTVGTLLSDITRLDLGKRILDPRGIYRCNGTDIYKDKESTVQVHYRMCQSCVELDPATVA

For test [2], the system named is SP34. Kind of test: Masking capability of potential masks of SP34 (ELISA, BLI). Format: binding. The note with it: mask and linker fused to SP34 VH and/or VL. The method, then: as §3
For orientation: An ELISA detects its analyte on a solid surface through an enzyme-linked reagent.

For test [3], the target named is T2, MMP9 (Homo sapiens, UniProt P14780).
T2 construct: purchased Acrobiosystems
The test can be described thus: Removal of masks by MMP9 digestion, SDS-PAGE. Format: biochemical. The following applies: 100 nM activated MMP9, 37° C., 3 hr. The procedure: MMP9 proenzyme (proMMP9), purchased from Acrobiosystems, was dissolved to 100 μg/mL in MMP9 digestion buffer (50 mM Tris, 10 mM CaCl2), 150 mM NaCl, pH 7.6). 4-aminophenylmercuric acetate (APMA) was added to a final concentration of 1 mM. The proMMP9-APMA mixture was incubated at 37° C. for 24 hr to activate proMMP9.
The selected M-TCEs, after adjusting to MMP9 digestion buffer, was mixed with activated MMP9 to a final concentration of 100 nM. The samples were further incubated at 37° C. for 3 hr to allow M-TCEs to be digested by MMP9.
The M-TCEs with 14 AA, 16 AA and 18 AA linker could be completely or nearly completely digested, as only the faster migrating bands could be seen. […] Too short linker would make the removal of the masks difficult, probably because the employed enzyme, MMP9 in this case, could not fully engage with its digestion site in the M-TCEs.

The subject of test [4] is HT29 cells. Kind of test: PBMC co-cultivation assay, M-TCE-induced killing of HT29 cells. The class given is cell-based, human. The note with it: for EC50: HT29 + human PBMC, 72 hours, read-out: Efficacy (EC50); for tumor cell killing efficacy: digested vs undigested, in words; for Digested vs. masked: ratio of EC50 non-digested to MMP9-digested. The procedure: Five digested and undigested M-TCEs were tested for their tumor cell killing capability in the presence of human PBMC.
A total of 5×10^3 cells in RPMI1640 medium (supplemented with 10% FBS and 2 mM glutamine) of the target cell line (HT29) were seeded in 96-well plates (Day 0). A dilution series of respective antibodies was performed in assay media and added to target cells. On Day 0, a total of 5×10^4 PBMCs were added to each well, and the final reaction volume was adjusted to 200 μl. Percentage viability of target cell was measured by […]. LDH was measured after 72 hours using the Cell Counting Kit-8 (CK04, Dojindo, Japan) according to the manufacturer's recommendations. The results were analyzed as mean and standard deviation (SD) from triplicate wells and plotted as 4-parameter non-linear regression fittings using GraphPad Prism 9 software (GraphPad Software, San Diego, CA, USA).

For test [5], the system named is SP34. Kind of test: BLI binding of SP34 to CD3ε1-27 mutant fusion proteins. The following applies: FIG. 2B. The method, then: as §2
In some embodiment, binding of SP34 to the second batch of 42 variants of […] mutant fusion proteins were tested by BLI with a ForteBio Red96 as described above.

Test [6] has as its target T3, CD3ε-p2 (human).
T3 construct: also called 8 AA N-terminal CD3ε peptide
T3 peptide: QDGNEEMGGGGGS-biotin
Kind of test: BLI, biotinylated peptide on SA biosensor, SP34 as analyte. The method, then:
(§4) To measure the binding of SP34 to CD3ε peptides, the peptides were immobilized on the SA biosensor through SA-biotin interaction according the manufacturer's instruction. After running PBS with 0.01% Tween-20 buffer to stabilize baselines, the biosensors were dipped into solid black 96-well plates (Greiner Bio-One, Cat. #65520, Monroe, North Carolina, USA) containing SP34 in indicated concentrations. Association and dissociation were measured accordingly, and binding kinetics were calculated using ForteBio's Data Analysis 12.0 software.
(§5) BLI technology was employed to measure the affinity of the six peptides to SP34 with a ForteBio Red96. These peptides were immobilized on the SA Biosensor and their affinities were measured using SP34 as the analyte. The binding sensorgrams indicate that SP34 binds to all six peptides with very similar profiles (FIG. 1C). […] It is further hypothesized that a N-terminal CD3ε peptide […] can bind to SP34 as well.

For test [7], the target named is T4, CD3ε-p6 (human, biotinylation at the C-terminus).
T4 construct: also called 20 AA N-terminal CD3ε peptide
T4 peptide: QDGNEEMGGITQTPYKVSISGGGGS
The description is as above. The method, then: as §4, §5

Test [8] deals with T5, CD3ε-p7 (human, biotinylation at the C-terminus).
T5 construct: also called 23 AA N-terminal CD3ε peptide
T5 peptide: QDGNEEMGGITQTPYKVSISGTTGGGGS
Described as above. The method, then: as §4, §5

Test [9] addresses T6, CD3ε-p1 (human).
T6 construct: also called 5 AA N-terminal CD3ε peptide
T6 peptide: QDGNEGGGGS-biotin
The description is as above. The method, then: as §4, §5

The target in test [10] is T7, CD3ε-p3 (human).
T7 construct: also called 11 AA N-terminal CD3ε peptide
T7 peptide: QDGNEEMGGITGGGGS-biotin
The test is described as above. The method, then:
as §4, §5

Test [11] has as its target T8, CD3ε-p5 (human, biotinylation at the C-terminus).
T8 construct: also called 17 AA N-terminal CD3ε peptide
T8 peptide: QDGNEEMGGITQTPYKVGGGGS
The test is described as above. The procedure: as §4, §5

The target of test [12] is T1, CD3δε. The test can be described thus: BLI (Octet Red96), SP34 on AHC biosensor, CD3δε as analyte.
The target in test [13] is T1, CD3δε. Kind of test: BLI affinity of SP34 (immobilized on AHC biosensor) to CD3δε as analyte. Format: binding. More on the design: purchased ACRO (Beijing, China). The method, then:
as §1
CD3δε was purchased from ACRO (Beijing, China) and used as the antigen for SP34 affinity measurement.
SP34 was immobilized on the AHC biosensor and its affinity to CD3δε was measured using the latter as the analyte. This approach was selected as it can avoid potential multivalent binding and give accurate affinity between SP34 and CD3δε.
Target sequence in this assay (P07766 22-126 limits assumed): as the sequence (P07766 22-126 limits assumed) above
Target sequence in this assay (P04234 22-105 partner limits assumed): as the sequence (P04234 22-105 partner limits assumed) above

For test [14], the target named is T9, CD3 on human PBMC (human, UniProt P07766 23-207). Kind of test: cell-based or functional assay.
The target of test [15] is T9, CD3 on human PBMC. The test can be described thus: cell-based or functional assay. This is another data set of the same source.

Where two headings read alike, the source gives them in different places. No end group written: not given here.

T2 sequence (P14780 107-707 limits assumed): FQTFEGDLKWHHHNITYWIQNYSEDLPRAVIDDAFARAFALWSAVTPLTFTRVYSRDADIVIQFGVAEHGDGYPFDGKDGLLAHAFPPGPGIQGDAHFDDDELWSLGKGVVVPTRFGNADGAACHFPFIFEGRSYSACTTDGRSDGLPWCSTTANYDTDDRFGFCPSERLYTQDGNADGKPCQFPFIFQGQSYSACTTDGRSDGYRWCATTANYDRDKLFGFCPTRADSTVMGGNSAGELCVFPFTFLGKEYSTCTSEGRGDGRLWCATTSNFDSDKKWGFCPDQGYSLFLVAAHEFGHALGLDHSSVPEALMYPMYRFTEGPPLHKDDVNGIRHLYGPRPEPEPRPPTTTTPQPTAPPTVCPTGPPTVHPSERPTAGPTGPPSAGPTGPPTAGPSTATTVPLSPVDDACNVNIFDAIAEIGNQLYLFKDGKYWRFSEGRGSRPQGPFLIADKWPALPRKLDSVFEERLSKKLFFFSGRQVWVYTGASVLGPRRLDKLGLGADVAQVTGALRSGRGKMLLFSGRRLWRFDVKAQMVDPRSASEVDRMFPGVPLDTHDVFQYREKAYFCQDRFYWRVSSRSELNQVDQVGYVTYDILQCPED
T9 sequence (P07766 23-207): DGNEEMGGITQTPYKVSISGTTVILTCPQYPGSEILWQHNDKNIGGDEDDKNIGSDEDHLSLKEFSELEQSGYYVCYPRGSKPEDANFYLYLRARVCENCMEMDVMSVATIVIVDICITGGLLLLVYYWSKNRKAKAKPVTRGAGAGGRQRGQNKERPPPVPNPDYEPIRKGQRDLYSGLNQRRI

“L2-G3R: M-TCE; QDRNEEGSPLGLGS-SP34VH, SEQ ID NO 43”: in [1] (non-digested (masked), compared with non-masked TCE), the “binding to CD3δε” value was “lack of masking capability”. The “Masking Capability” value in test [2] is on record as “Yes”. The “digestion by MMP9” value in test [3] was “could not be digested”.
One may read the EC50 as the concentration giving half of the maximal effect. For “L4-D2E: M-TCE; QEGNEEGSGSPLGLGSGS-SP34VH, SEQ ID NO 27”, the “Masking Capability” value in test [2] is on record as “Yes”. The 50% effective concentration (EC50) in [4] (MMP9-digested) was 0.011 nM. Besides, the EC50 in [4] (Non-digested) came to 0.65 nM. Also, in [4], the “tumor cell killing efficacy” value is “higher efficacy in inducing tumor cell killing than their undigested counterparts” and the Digested vs. masked is on record as 59×. For the same molecule, in [3], the “digestion by MMP9” value is reported as “partially digested”.
With “L4-G3A: M-TCE; QDANEEGSGSPLGLGSGS-SP34VH, SEQ ID NO 39”, the “binding to CD3δε” value in test [1] (after MMP9 digestion) is reported as “largely restored the binding”. The “Masking Capability” value in test [2] is recorded as “Yes”. The concentration for a half-maximal effect (EC50) in test [4] (MMP9-digested) amounted to 0.012 nM. In addition, the half-maximal effective concentration (EC50) in test [4] (Non-digested) was 1.72 nM. The “efficacy lower before mask removal” value in test [4] (before vs after MMP9 digestion) is about 140 fold. In addition, in test [4], the “tumor cell killing efficacy” value was “could induce tumor cell killing both before and after MMP9 digestion”; the Digested vs. masked was 144×. In addition, the “EC50 of MMP9-digested M-TCE relative to unmasked TCE” value in test [4] (vs SP34-CEA) is reported as “approximately 10 fold”. Besides, the “digestion by MMP9” value in test [3] is recorded as “partially digested”.
With “G3R: G3R mutant of the CD3ε1-27-Fc fusion protein”, in [5], the “binding of SP34 to fusion protein” value is listed as “maintained binding”.
Still for that read-out and setting: to “Q1C: Q1C mutant of the CD3ε1-27-Fc fusion protein” belongs “maintained binding”.

B1: SP34 chimeric antibody (antibody, V domains shown)
VH: EVKLLESGGGLVQPKGSLKLSCAASGFTFNTYAMNWVRQAPGKGLEWVARIRSKYNNYATYYADSVKDRFTISRDDSQSILYLQMNNLKTEDTAMYYCVRHGNFGNSYVSWFAYWGQGTLVTVSS
VL: QAVVTQESALTTSPGETVTLTCRSSTGAVTTSNYANWVQEKPDHLFTGLIGGTNKRAPGVPARFSGSLIGDKAALTITGAQTEDEAIYFCALWYSNLWVFGGGTKVEIK
notes: VH and VL fused to the constant regions of human IgG1
In general, Kd refers to the free concentration of one partner at which half of the binding sites on the other are occupied at equilibrium, for simple one-to-one binding. The low end stands for a tighter complex, the high end for a looser complex. The term koff denotes the rate constant with which the complex falls apart. The kon is a measure of how fast the partners come together. In the case of B1, the dissociation constant Kd amounted to 3.6 nM in [6]; 3.5 nM in test [7]; 1.3 nM in test [8]; 0.99 nM in test [9]; 2 nM in test [10]; 1.8 nM in test [11]. The dissociation constant Kd in [12] is 5.8 nM. Besides, the koff in test [6] was 0.00024 s⁻¹; in test [7], 0.00016 s⁻¹; in test [8] it was 0.00013 s⁻¹; in test [9], 0.00016 s⁻¹; in test [10], 0.00011 s⁻¹; in test [11], 9.8e-05 s⁻¹. The off-rate (koff) in [12] was 0.0032 s⁻¹. Further, the on-rate constant (kon) in [6] turned out to be 65000 M⁻¹ s⁻¹; in test [7], 46000 M⁻¹ s⁻¹; in [8], 100000 M⁻¹ s⁻¹; in test [9], 160000 M⁻¹ s⁻¹; in test [10], 56000 M⁻¹ s⁻¹; in test [11] it was 54000 M⁻¹ s⁻¹. Besides, the kon in test [12] stood at 550000 M⁻¹ s⁻¹.

B2: SP34: anti-CD3 antibody; VH and VL (SEQ ID NOs 1, 2) fused to human IgG1 constant regions, chimeric antibody (antibody, V domains shown)
VH: EVKLLESGGGLVQPKGSLKLSCAASGFTFNTYAMNWVRQAPGKGLEWVARIRSKYNNYATYYADSVKDRFTISRDDSQSILYLQMNNLKTEDTAMYYCVRHGNFGNSYVSWFAYWGQGTLVTVSS
VL: QAVVTQESALTTSPGETVTLTCRSSTGAVTTSNYANWVQEKPDHLFTGLIGGTNKRAPGVPARFSGSLIGDKAALTITGAQTEDEAIYFCALWYSNLWVFGGGTKVEIK
modifications: human IgG1 constant regions; VH of anti-CD3 antibody SP34; VL of anti-CD3 antibody SP34
On to B2, for which the ka in test [13] (SP34 immobilized, CD3δε 9.4-150 nM as analyte) was 550000 M⁻¹ s⁻¹. Moreover, the kd in [13] (SP34 immobilized, CD3δε as analyte) amounted to 0.0032 s⁻¹. In addition, in test [13] (monovalent binding of SP34 to CD3δε), the Kd worked out at 5.8 nM.

B3: MMP9-digested L4-G3A (bispecific antibody, not shown: small tags and cut ends)
heavy: EVKLLESGGGLVQPKGSLKLSCAASGFTFNTYAMNWVRQAPGKGLEWVARIRSKYNNYATYYADSVKDRFTISRDDSQSILYLQMNNLKTEDTAMYYCVRHGNFGNSYVSWFAYWGQGTLVTVSS
light: QAVVTQESALTTSPGETVTLTCRSSTGAVTTSNYANWVQEKPDHLFTGLIGGTNKRAPGVPARFSGSLIGDKAALTITGAQTEDEAIYFCALWYSNLWVFGGGTKVEIK
chain: EVQLVESGGGFVQAGESLTLSCTSSTLTFTPYRMAWYRQAPGKQRDLVADISSGDGRTTNYADFAKGRFTISRDNIKNTVFLRMTNLKPEDTAVYYCNTFVSFVGIARSWGQGTQVTVSSESKYGPPCPPCPAPEAAGGPSVFLFPPKPKDTLMISRTPEVTCVVVDVSQEDPEVQFNWYVDGVEVHNAKTKPREEQFNSTYRVVSVLTVLHQDWLNGKEYKCKVSNKGLPSSIEKTISKAKGQPREPQVCTLPPSQEEMTKNQVSLSCAVKGFYPSDIAVEWESNGQPENNYKTTPPVLDSDGSFFLVSRLTVDKSRWQEGNVFSCSVMHEALHNRFTQKSLSLSL
As for B3, the “killing EC50 of MMP9-digested M-TCE against that of unmasked TCE SP34-CEA” value in [14] is about 10 fold. Further, the “EC50 of M-TCE-induced killing of HT29 cells in the presence of human PBMC” value in test [15] came out at 0.012 nM.
